T1: GST-p15
T1 chain: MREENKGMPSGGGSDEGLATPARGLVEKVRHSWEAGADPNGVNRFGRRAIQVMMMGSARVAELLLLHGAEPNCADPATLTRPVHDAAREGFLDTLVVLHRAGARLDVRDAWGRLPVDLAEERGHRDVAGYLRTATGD

T2: GST-p16 fusion protein
T2 chain: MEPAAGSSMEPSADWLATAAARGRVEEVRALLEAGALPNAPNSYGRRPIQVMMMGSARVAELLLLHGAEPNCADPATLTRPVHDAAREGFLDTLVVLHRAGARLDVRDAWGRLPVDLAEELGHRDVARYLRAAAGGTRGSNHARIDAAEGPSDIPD

T3: p15
T3 chain: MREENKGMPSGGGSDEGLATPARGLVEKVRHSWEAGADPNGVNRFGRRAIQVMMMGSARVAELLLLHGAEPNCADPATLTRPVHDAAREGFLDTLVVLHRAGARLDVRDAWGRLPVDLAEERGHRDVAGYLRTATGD

T4: p16
T4 chain: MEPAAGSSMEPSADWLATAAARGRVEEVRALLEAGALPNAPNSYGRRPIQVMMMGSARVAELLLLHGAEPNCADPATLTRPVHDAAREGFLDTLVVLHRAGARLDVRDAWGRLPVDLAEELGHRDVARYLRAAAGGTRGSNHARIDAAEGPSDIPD

B1: CDK4 (wild-type) (protein)
chain: MATSRYEPVAEIGVGAYGTVYKARDPHSGHFVALKSVRVPNGGGGGGGLPISTVREVALLRRLEAFEHPNVVRLMDVCATSRTDREIKVTLVFEHVDQDLRTYLDKAPPPGLPAETIKDLMRQFLRGLDFLHANCIVHRDLKPENILVTSGGTVKLADFGLARIYSYQMALTPVVVTLWYRAPEVLLQSTYATPVDMWSVGCIFAEMFRRKPLFCGNSEADQLGKIFDLIGLPPEDDWPRDVSLPRGAFPPRGPRPVQSVVPEMEESGAQLLLEMLTFNPHKRISAFRALQHSYLHKDEGNPE
B2: CDK4 Arg24-Cys mutant (protein)
chain: MATSRYEPVAEIGVGAYGTVYKACDPHSGHFVALKSVRVPNGGGGGGGLPISTVREVALLRRLEAFEHPNVVRLMDVCATSRTDREIKVTLVFEHVDQDLRTYLDKAPPPGLPAETIKDLMRQFLRGLDFLHANCIVHRDLKPENILVTSGGTVKLADFGLARIYSYQMALTPVVVTLWYRAPEVLLQSTYATPVDMWSVGCIFAEMFRRKPLFCGNSEADQLGKIFDLIGLPPEDDWPRDVSLPRGAFPPRGPRPVQSVVPEMEESGAQLLLEMLTFNPHKRISAFRALQHSYLHKDEGNPE

Experiments:
GST-p15 = target: T1, GST-p15
GST-p16 fusion protein = target: T2, GST-p16 fusion protein
p15 = target: T3, p15
p16 = target: T4, p16

Chain of p21, P38936 (P38936 whole entry): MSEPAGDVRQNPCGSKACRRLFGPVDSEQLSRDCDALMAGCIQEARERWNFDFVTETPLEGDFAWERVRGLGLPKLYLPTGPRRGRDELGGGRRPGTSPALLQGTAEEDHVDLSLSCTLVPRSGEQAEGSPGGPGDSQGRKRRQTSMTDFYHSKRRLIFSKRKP

| Protein | kinase activity of CDK4 (GST-RB phosphorylation) (GST-p15) | kinase activity of CDK4 (GST-RB phosphorylation) (GST-p16 fusion protein) | CDK4 kinase activity (GST-RB phosphorylation) (p15) | CDK4 kinase activity (GST-RB phosphorylation) (p16) | ability of CDK4 to phosphorylate RB (p16) | RB phosphorylation by cyclin D/CDK4 (GST-RB substrate) (p21, P38936) | CDK4 kinase activity (GST-RB phosphorylation) (p21, P38936) | CDK4 kinase activity (GST-RB phosphorylation) (p27) |
| --- | --- | --- | --- | --- | --- | --- | --- | --- |
| B1 | Like p16, the p15-GST fusion protein was able to inhibit the kinase activity of CDK4 | Like p16, the p15-GST fusion protein was able to inhibit the kinase activity of CDK4 | upon addition of increasing amounts of either p16- or p15containing lysate to the CDK4/cyclin D mixture, the wild-type CDK4 was inhibited | upon addition of increasing amounts of either p16- or p15containing lysate to the CDK4/cyclin D mixture, the wild-type CDK4 was inhibited | In response to increasing amounts of p16, corresponding decreases in the ability of CDK4 to phosphorylate RB was observed | Addition of increasing amounts of p21 resulted in the accumulation of cyclin D/CDK4/p21 ternary complexes with a corresponding inhibition of RB phosphorylation | – | – |
| B2 | – | – | the mutant CDK4 was relatively unaffected | the mutant CDK4 was relatively unaffected | – | – | the particular mutation, Arg24-Cys, did not effect the binding or inhibitory ability of either of those proteins | the particular mutation, Arg24-Cys, did not effect the binding or inhibitory ability of either of those proteins |
